One molecule from patent US20120128639A1, “In Vitro Production Of Oligodendrocytes From Human Umbilical Cord Stem Cells” (UNIVERSITY OF CENTRAL FLORIDA RESEARCH FOUNDATION, INC., priority 2009, published 2012) can be followed below.

This assay concerns human multipotent progenitor cells (MLPCs) from umbilical cord. The conditions noted are these: 3D environment; presence or absence in medium. The procedure:
MLPCs were seeded on DETA-coated glass coverslips (18 mm) at a density of 4×10^3 cells/cm^2 in growth medium. After 3 days, at about 60% confluency, cells were incubated for 24 hours in pre-induction medium, consisting of DMEM, 15% FBS. FGF-2, EGF (20 ng/ml each, R & D Systems, Minneapolis, Minn.) and PDGF-AA (10 ng/ml, Chemicon International, Temecula, Calif.). To initiate differentiation, the pre-induction medium was removed, the cells were washed 2× with Hanks' balanced salts solution (Gibco BRL) and transferred to serum-free differentiation medium.
Construction of 3D Environment MLPCs were plated on DETA-coated glass coverslips (18 mm) in growth medium. At about 60% confluence, growth medium was replaced with pre-induction medium. […]
Phase-contrast images were taken with a commercial Nikon Coolpix 990 camera using the Zeiss Axiovert S100 microscope. Pictures were analyzed using Scion Image Software (Scion Corp., Frederick, Md.).
The morphological and immunocytochemical quantification was performed on undifferentiated stem cells or cells during various differentiation stages. […] All the marker-positive cells were counted, as well as the total number of cells in these views. At least three coverslips in each group were quantified and data were expressed as average±standard deviation (SD). Statistical differences between different experimental groups were analyzed by Student's t-test.

B1: EGF: growth factor in pre-induction and differentiation medium (protein, UniProt P01133 23-1207, looked up)
Pro-epidermal growth factor: PQHWSCPEGTLAGNGNSTCVGPAPFLIFSHGNSIFRIDTEGTNYEQLVVDAGVSVIMDFHYNEKRIYWVDLERQLLQRVFLNGSRQERVCNIEKNVSGMAINWINEEVIWSNQQEGIITVTDMKGNNSHILLSALKYPANVAVDPVERFIFWSSEVAGSLYRADLDGVGVKALLETSEKITAVSLDVLDKRLFWIQYNREGSNSLICSCDYDGGSVHISKHPTQHNLFAMSLFGDRIFYSTWKMKTIWIANKHTGKDMVRINLHSSFVPLGELKVVHPLAQPKAEDDTWEPEQKLCKLRKGNCSSTVCGQDLQSHLCMCAEGYALSRDRKYCEDVNECAFWNHGCTLGCKNTPGSYYCTCPVGFVLLPDGKRCHQLVSCPRNVSECSHDCVLTSEGPLCFCPEGSVLERDGKTCSGCSSPDNGGCSQLCVPLSPVSWECDCFPGYDLQLDEKSCAASGPQPFLLFANSQDIRHMHFDGTDYGTLLSQQMGMVYALDHDPVENKIYFAHTALKWIERANMDGSQRERLIEEGVDVPEGLAVDWIGRRFYWTDRGKSLIGRSDLNGKRSKIITKENISQPRGIAVHPMAKRLFWTDTGINPRIESSSLQGLGRLVIASSDLIWPSGITIDFLTDKLYWCDAKQSVIEMANLDGSKRRRLTQNDVGHPFAVAVFEDYVWFSDWAMPSVMRVNKRTGKDRVRLQGSMLKPSSLVVVHPLAKPGADPCLYQNGGCEHICKKRLGTAWCSCREGFMKASDGKTCLALDGHQLLAGGEVDLKNQVTPLDILSKTRVSEDNITESQHMLVAEIMVSDQDDCAPVGCSMYARCISEGEDATCQCLKGFAGDGKLCSDIDECEMGVPVCPPASSKCINTEGGYVCRCSEGYQGDGIHCLDIDECQLGEHSCGENASCTNTEGGYTCMCAGRLSEPGLICPDSTPPPHLREDDHHYSVRNSDSECPLSHDGYCLHDGVCMYIEALDKYACNCVVGYIGERCQYRDLKWWELRHAGHGQQQKVIVVAVCVVVLVMLLLLSLWGAHYYRTQKLLSKNPKNPYEESSRDVRSRRPADTEDGMSSCPQPWFVVIKEHQDLKNGGQPVAGEDGQAADGSMQPTSWRQEPQLCGMGTEQGCWIPVSSDKGSCPQVMERSFHMPSYGTQTLEGGVEKPHSLLSANPLWQQRALDPPHQMELTQ
modifications: Pro-epidermal growth factor
Take B1: the “need of the growth factor for process formation” value is given as “not essential”.
